Reference: PMC8448731 (Nature Communications, 2021)
Changes are numbered by the printed parent chain.

B1: SR1 (VHH)
VHH: EVQLVESGGGLVQAGDSLRLSCAASGKTGRSVIMGWFRQAPDKEREFVATITRGDDTTNYADSVKGRFTISRDDARNTVYLQMNSLKPEDTAVYYCAAVYFVNDCIVDYWGQGTQVTVSS
notes: not shown: 6xHis, C-terminal, kept
B2: SR12c3 (VHH)
VHH: EVQLVESGGGLVQAGDSLRLSCAASGAIVHVFAMGWFRQAPGKEREFVASINLDNDVTNYADSVKGRFTISRDDARNTVYLQMNSLKPEDTAVYYCNATIFTDSGLGDYWGQGTQVTVSS
notes: as for B1
B3: SR6c3 (VHH)
VHH: EVQLVESGGGLVQAGDSLRLSCAASGDCHVLWRMGWFRQAPGKEREFVAAISLDGQFTNYADSVRGRFSISADSAKNTVYLQMNSLKPEDTAVYYCAALPFLDYWGQGTQVTVSS
notes: as for B1
B4: SR6v1 (VHH)
VHH: B3 VHH with C28S
notes: as for B1
B5: SR6v7 (VHH)
VHH: B3 VHH with C28S, H29Y, V30I
notes: as for B1
B6: SR2 (VHH)
VHH: EVQLVESGGGLVQAGDSLRLSCAASGAFGSNVFMGWFRQAPGKEREFVASITPHHTVTDYADSVRGRFSISADSAKNTVYLQMNSLKPEDTAVYYCAAAIYRNASVLDYWGQGTQVTVSS
notes: as for B1
B7: SR6v9 (VHH)
VHH: B3 VHH with C28S, N77Y
notes: as for B1
B8: SR12 (VHH)
VHH: B2 VHH with V57A, T102M, G105D
notes: as for B1

Molecular target: T1, SARS-CoV-2 spike RBD with C-terminal 3xFlag tag and N-terminal signal peptide of the spike (RBD-3xFlag) (SARS-CoV-2, Wuhan-Hu-1 type (wild type), UniProt P0DTC2)
T1 construct: also called RBD-3×Flag; wild-type RBD; not shown: 3xFlag, C-terminal, kept
Assay: ELISA
Settings: one partner purified

Binder | binding result
B1 | binds
B2 | binds
B3 | binds
B4 | binds
B5 | binds
B6 | binds
B7 | binds
B8 | binds
